Where only a bound is given, the exact number is not on record here.

The data set in a line: soluble fraction after stress (log2 fold change); higher = more stays soluble; pooled small domains, quantitative proteomics. The following applies: stress: pH 4. The gist of the method: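 Pooled custom libraries of small protein domains were subjected to pH 4 and measured by high-throughput quantitative proteomics. The log2 fold change in soluble amount per domain is reported, higher values meaning more remained soluble. This is used as a measure of aggregation propensity.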
In the case of “HMVEGTVKWFNDEKGFGFIEQEGGKDVFVHFSAINGSGRRTLHEGQRVTMEVTQGQKGPQAENVNP”, the “soluble fraction (log2)” value is -0.436. The same measure for “HMVEIPEFKITTFVNTDNEQIAEFENGFTDKKAEITFNNTKYVFKEKLPDQDGIRTYVYEELHE”: -0.438. The same measure for “HMVELGMSQNEFIQKFGKPFNKEMAYTYDKHKRETLFYKEDLYRGSWFIVTTAFTFVDSKLVSQEIVREER”: -0.349; for “HMVENMDEFIGRVRRLVSDRLDLLKEASDDEIRETISQVVLELSREQFLTLNEKKTVLEGVFNSMR”: -1.38. Turning to “HMVERLVVSPGAGVFAPNKAIANGTRISVGDVLGMVGEQEVRSLFDGVLQSFISVDGERLTAHQPVAWLRT”, the “soluble fraction (log2)” value is -0.111.

Consider “HMVEVPKVAGMSTAQGVSELEQKGFVVNRTESYDDTVPKGNIISQTPEGGTKVPSGSAVTIKISQGAE”, for which the “soluble fraction (log2)” value is -0.0558. The value for “HMVEVPNVIGMTKPELTQQFVNLKLDGSGEGDVVVQQSPSEGSKVKEGSTVRVYFG” was 0.137; that for “HMVEVPNVSNLTLEQAENKLIQQGLQVKLEGQGEKVVAQIPQPGAVVNKKSTVILF” was 0.0373; that for “HMVFLPDEIFRLKVIKAGEGPEQGVGYLDDGTMVVIEGARDRIGDELEVRVTSTLQTNAGKMIFTKFE” was -2.12. For the sequence “HMVGEPEPIRYSRFLDEMKSGKLDSVVIQGDTILGVRKDKSQFKTVNPETDYSALIGALDKAGVGIEGRA”, the “soluble fraction (log2)” value came to 0.149. As to “HMVGEYTVKKGDTLWKIAGQTLGSPLRYAEIYELNKDVIEEAALGRGKKNSSNGHWIFQGTVLKIPA”, the “soluble fraction (log2)” value is -0.255.

As to “HMVGIAEAMKHIADEDYGDLSAIFKQIFSDTDGGRNFSDAIRTQMRSTDSSGLRKVLSTLIMSIEE”, the “soluble fraction (log2)” value was -0.854. “HMVGNEEALRAIVESIIAQNTTEVASFREGKEGLIGWFLGQVMRQTGGKADPKLARQILLELLKQ”: the “soluble fraction (log2)” value is -0.492. The value for “HMVGNYYDILGVPETATQDAIKKAFRSLAQQHHPDKNPDDPGAEAMFKKVSEAYQVLSDPDKRQTYDASL” was -0.0611; that for “HMVIDFYDPQTKVIHEIKKSSAKEEAHVWQVKYYIYLFEKEEIMGVKGVLEYPLLREIVSVNF” was -0.0844; that for “HMVINQRKLNLLSIYSSGSEKRAIILFPTGQTKFVKVGDTLDGGRVAAIGTSEIRYLKGGNNLVLRIPG” was 0.173. The same measure for “HMVINTRHTGFVVDDLERFINFYLGLGLKLISRKVESGEYIDKLVGLKGTKLEWAKLSLPDNSMIEILKYH”: -0.454; for “HMVIREVNDNPVSAEELRLGDRVKVLSLGQNGEIVTLPDEKGELTVQVGILKAKVNLDDIMLI”: 0.0234; for “HMVISAKRMQDRRDSILDAAREAFARAGFEGTSIADIARRAGVSDGLVYRYFASKRDLLNAVLTA”: 0.216. The same measure for “HMVIVGGDVIVHYVDTEGKKISDDVVKSGNVGEDYSTDQKTILGYRFKEVQGNTSGKFTDKTQVVTYIYT”: 0.179; for “HMVKEVKVPDVEGLTTEEAIKELKKYGLAYTTKSEENTDIEEGKVIRTEPKKGSTKVKGSTVTIIESSG”: 0.253.

Turning to “HMVKFGERVKQLRLSAGMTQEQLAERIWVTKAAISNYELSERNPSPETIIKIAGVFGVTTDYLLGLED”, the “soluble fraction (log2)” value was -0.434. The value for “HMVKIVWSKEGPYVGTRVRRYFSQGPVDGTVVMYAKPQKGDDVALWRISHDDGDEEDLEEQELRLAID” was -1.69; that for “HMVKLQATPSQRKTLDELYVQLKKLEPTAKEDLSLLRRLENSHLVSKQEAQGLISKAIGRVGALAVEQQP” was 0.0541; that for “HMVKNTIHVDLKGEVNKPGVYEVEEGTIVNDLITLANGFTKNAYQDNINLSKKLTDEMVIVVSKKGS” was -0.461. The value for “HMVKNVVIPDVSNKAPVDASNQLTDLGFEVVTEYKYIASDTIEEGKVVKTSPEIGSKRKYGQKITLYISSG” was 0.205.

For the sequence “HMVKRAYGEYVNVKLTDADLSKLKADFPADWQERIERLSTYMASTGKTYKNHLATIRNWARRDAERVSA”, the “soluble fraction (log2)” value is -0.292. The value for “HMVKVSVYPNPAVDRITISGEVKAYAVYDATGKVVMKDTDYRGGAIGVSHLPAGIYIVRTDAGAVTVNK” was -0.246.

Consider “HMVLSVRDRMVQILDQVKTGEYKRIEDFFSADEGRTGFVVSFVAILELVKGGLLTITQSKNLAPIYVRLPN”, for which the “soluble fraction (log2)” value was -0.108. On to “HMVLVEEYDTKDSASTFKIGYYARYNTKYGTPSKVGSYADNQRSGIWTFYTDSLKTYFKYNYSTGLIL”, for which the “soluble fraction (log2)” value was -0.572. The same measure for “HMVLVGERRQKILEVVSSGKAVTVEELSRILHVSPSTVRRDLRFLESRGLLYRTHGGAMPPV”: -0.0726; for “HMVLVKFEWTPPDARILVDDHPVEARDKEMELPEGTHHVQALAPRGSGYESTVTDIEVRQGMDPVRIAL”: 0.115. The value for “HMVMRHTVEHDAELLAVLRLMYPASSSTKLRKMLTQGRVLVNDDVVHRAKHGVASGDTVDVIVRQRAE” was 0.0827.

For the sequence “HMVNFKLIGNKIAEARKKVNISQAQLAQRLFISSQAVGKWERGESMPDIITFNRLAEILGVDLNYFSE”, the “soluble fraction (log2)” value was determined as 0.266.

As to “HMVNPDAPAPLYIVNGKETDKNIALAIKPEDVQDVRIIKNTVALQVYGEKGKNGVVIINTKPGV”, the “soluble fraction (log2)” value was 0.0604.

Take “HMVNSADLAAKPFIDLLVSTRQQLREAKQYDLADTIRDELTNHGITIEDKPQGSEWQYEFNPNS”: the “soluble fraction (log2)” value was -0.499. The same measure for “HMVNTYILNNKEYPIEIIRKNNKNTYLRVKEGKIIVTTNYLTSSFTINKLIKDNTSFINKALLKEN”: -0.0629; for “HMVNYKEILRLAHEGYSQRQIATNIGNSRNTVSEVLDAAKAANIAWPPEETVTNEQLGAILFPNRH”: ≥ 0.43. The value for “HMVNYKEILRLSAEGNSQRQIAAGSGNSRNTVIEVLEAARARGITWPLDEPVTNEQLEAILFPNRY” was ≥ 0.43; that for “HMVPEETKQFINQLNHGSLSIRMNAANNLEKLGLLAIPEIEAALPKAHGEAAFRLPRLLHALVLRETEYF” was 0.0598.

With “HMVPEMIRDVISKSIRDMGVLPDHMQINERIALIQSLKKQQILGIKGAVAETARQLGISVPTVYRYMKKG”, the “soluble fraction (log2)” value was -0.125. The value for “HMVPFISVTPTSLSFAKGGESKTVDIEASGAFSVGKVPTGFNLEVVNGRITITADANTGAARNGSVEFILA” was 0.00872; that for “HMVPHTTSMVAEVQERLFNLNYDPGPINGRMDQATITAITRFQRNFSLPQTGQIDEGFLNTLRDARL” was 0.063. The value for “HMVPLGDLSKNERRAMELAATNGNVTTRALADDAQVTKRTASTTLRRLAKRGLLEWIGKGPSDPGQFYRIP” was -0.119.

In the case of “HMVPLTPGELVGTEVRVLWWKEGRGEVIASSRGHQLTLEAHSEDPLRAGSTAVVLEAADDVLVVTS”, the “soluble fraction (log2)” value was -1.18. The same measure for “HMVPPELEFLQSLMKIEDISELTAAIENNRDAVTDDFKEMLETVIENISGAPDTDPKLLERLKTIRTVLA”: -0.631; for “HMVPPVVRTIYGAGGKMTATFLFPGGYEVDAASGAELPGKYRVESISLDQVVLTDKDGNRVPVGFSSVAPT”: -0.161; for “HMVPQEVLPITLIIDGKLIEENLLYAKMTEQVLIQQLDINNIKSIKQILFAGLDSFGNFFYQEKQN”: -1.91. The value for “HMVPTATVGENTSTLPVRQLPGGPVLVVLVRGDIVLPLPGHAFQNGDVWREISTVNGVIGWVPDEFLDY” was -1.3; that for “HMVPTVSVDRDDTLRFEGRPVDWDVLKRELGAVAGIDELKIYADAKVSALTVSKIMKSASEAGVLQFILVT” was -0.334.

(Values after the domain aggregation screens of Martell et al. (2025).)
